Reference: patent US20220041744A1 (INNATE PHARMA, published 2022)

T1: human recombinant soluble CD73 protein (human, UniProt P21589 27-547)
T1 construct: also called huCD73; rhCD73
T1 sequence: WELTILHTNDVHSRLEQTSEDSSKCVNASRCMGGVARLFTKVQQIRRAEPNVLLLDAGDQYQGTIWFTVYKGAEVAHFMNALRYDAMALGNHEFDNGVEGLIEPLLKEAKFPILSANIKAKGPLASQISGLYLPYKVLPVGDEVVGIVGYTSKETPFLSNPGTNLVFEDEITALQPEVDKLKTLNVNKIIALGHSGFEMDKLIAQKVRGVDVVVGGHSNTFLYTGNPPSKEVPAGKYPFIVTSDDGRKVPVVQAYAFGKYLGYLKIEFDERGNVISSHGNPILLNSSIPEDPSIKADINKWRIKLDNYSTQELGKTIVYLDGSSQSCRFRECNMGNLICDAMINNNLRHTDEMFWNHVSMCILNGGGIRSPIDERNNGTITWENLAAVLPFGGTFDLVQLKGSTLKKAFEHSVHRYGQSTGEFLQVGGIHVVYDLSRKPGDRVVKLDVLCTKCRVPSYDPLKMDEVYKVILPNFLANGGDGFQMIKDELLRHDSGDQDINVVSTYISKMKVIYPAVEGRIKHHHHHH

B1: H2L2 (antibody, human IgG1, V domains shown)
VH: QIQLVQSGAEVKKPGASVKVSCKASGYAFTSYNMYWVRQAPGQSLEWMGYIDPYNGGSSYNLTFKGRVTITVDKSASTAYMELSSLRSEDTAVYYCARGYGNYKAWFAYWGQGTLVTVSS
VL: DIQMTQSPSSLSASVGDRVTITCKASQSVSNDVAWYQQKPGKAPKLLIYYASTRYTGVPDRFSGSGYGTDFTFTISSLQPEDIATYYCQQDYSSLTFGQGTKLEIK
B2: H1L3 (antibody, human IgG1, V domains shown)
VH: QIQLVQSGAEVKKPGASVKVSCKASGYTFTSYNMYWVRQAPGQRLEWMGYIDPYNGGSSYNLTFKGRVTITRDKSASTAYMELSSLRSEDTAVYYCARGYGNYKAWFAYWGQGTLVTVSS
VL: DVQMTQSPSSLSASVGDRVTITCKASQSVSNDVAWYQQKPGKAPKLLIYYASTRYTGVPDRFSGSGYGTDFTFTISSLQPEDIATYYCQQDYSSLTFGQGTKLEIK
B3: H2L4 (antibody, human IgG1, V domains shown)
VH: QIQLVQSGAEVKKPGASVKVSCKASGYAFTSYNMYWVRQAPGQSLEWMGYIDPYNGGSSYNLTFKGRVTITVDKSASTAYMELSSLRSEDTAVYYCARGYGNYKAWFAYWGQGTLVTVSS
VL: DVQMTQSPSSLSASVGDRVTITCKASQSVSNDVAWYQQKPGKAPKLLIYYASTRYTGVPDRFSGSGYGTDFTFTISSLQPEDIATYFCQQDYSSLTFGQGTKLEIK
B4: H0L3 (antibody, human IgG1, V domains shown)
VH: QVQLVQSGAEVKKPGASVKVSCKASGYTFTSYNMYWVRQAPGQRLEWMGYIDPYNGGSSYNLTFKGRVTITRDTSASTAYMELSSLRSEDTAVYYCARGYGNYKAWFAYWGQGTLVTVSS
VL: DVQMTQSPSSLSASVGDRVTITCKASQSVSNDVAWYQQKPGKAPKLLIYYASTRYTGVPDRFSGSGYGTDFTFTISSLQPEDIATYYCQQDYSSLTFGQGTKLEIK
notes: H0 VH limits counted by alignment with H1
B5: H3L2 (antibody, human IgG1, V domains shown)
VH: QIQLVQSGAEVKKPGASVKVSCKASGYAFTSYNMYWVRQAPGQSLEWIGYIDPYNGGSSYNLTFKGKATITVDKSASTAYMELSSLRSEDTAVYYCARGYGNYKAWFAYWGQGTLVTVSS
VL: DIQMTQSPSSLSASVGDRVTITCKASQSVSNDVAWYQQKPGKAPKLLIYYASTRYTGVPDRFSGSGYGTDFTFTISSLQPEDIATYYCQQDYSSLTFGQGTKLEIK
B6: H4L2 (antibody, human IgG1, V domains shown)
VH: QIQLVQSGAEVKKPGASVKVSCKASGYAFASYNMYWVRQAPGQSLEWIGYIDPYNGGSSYNLTFKGKATLTVDKSASTAYMELSSLRSEDTAVYYCARGYGNYKAWFAYWGQGTLVTVSS
VL: DIQMTQSPSSLSASVGDRVTITCKASQSVSNDVAWYQQKPGKAPKLLIYYASTRYTGVPDRFSGSGYGTDFTFTISSLQPEDIATYYCQQDYSSLTFGQGTKLEIK
B7: H0L0 (antibody, human IgG1, V domains shown)
VH: QVQLVQSGAEVKKPGASVKVSCKASGYTFTSYNMYWVRQAPGQRLEWMGYIDPYNGGSSYNLTFKGRVTITRDTSASTAYMELSSLRSEDTAVYYCARGYGNYKAWFAYWGQGTLVTVSS
VL: DIQMTQSPSSLSASVGDRVTITCKASQSVSNDVAWYQQKPGKAPKLLIYYASTRYTGVPSRFSGSGSGTDFTFTISSLQPEDIATYYCQQDYSSLTFGQGTKLEIK
notes: variable-domain limits counted by alignment with H1 and L1
B8: H4L0 (antibody, human IgG1, V domains shown)
VH: QIQLVQSGAEVKKPGASVKVSCKASGYAFASYNMYWVRQAPGQSLEWIGYIDPYNGGSSYNLTFKGKATLTVDKSASTAYMELSSLRSEDTAVYYCARGYGNYKAWFAYWGQGTLVTVSS
VL: DIQMTQSPSSLSASVGDRVTITCKASQSVSNDVAWYQQKPGKAPKLLIYYASTRYTGVPSRFSGSGSGTDFTFTISSLQPEDIATYYCQQDYSSLTFGQGTKLEIK
notes: L0 VL limits counted by alignment with L1
B9: H3L3 (antibody, human IgG1, V domains shown)
VH: QIQLVQSGAEVKKPGASVKVSCKASGYAFTSYNMYWVRQAPGQSLEWIGYIDPYNGGSSYNLTFKGKATITVDKSASTAYMELSSLRSEDTAVYYCARGYGNYKAWFAYWGQGTLVTVSS
VL: DVQMTQSPSSLSASVGDRVTITCKASQSVSNDVAWYQQKPGKAPKLLIYYASTRYTGVPDRFSGSGYGTDFTFTISSLQPEDIATYYCQQDYSSLTFGQGTKLEIK
B10: H4L4 (antibody, human IgG1, V domains shown)
VH: QIQLVQSGAEVKKPGASVKVSCKASGYAFASYNMYWVRQAPGQSLEWIGYIDPYNGGSSYNLTFKGKATLTVDKSASTAYMELSSLRSEDTAVYYCARGYGNYKAWFAYWGQGTLVTVSS
VL: DVQMTQSPSSLSASVGDRVTITCKASQSVSNDVAWYQQKPGKAPKLLIYYASTRYTGVPDRFSGSGYGTDFTFTISSLQPEDIATYFCQQDYSSLTFGQGTKLEIK
B11: H3L4 (antibody, human IgG1, V domains shown)
VH: QIQLVQSGAEVKKPGASVKVSCKASGYAFTSYNMYWVRQAPGQSLEWIGYIDPYNGGSSYNLTFKGKATITVDKSASTAYMELSSLRSEDTAVYYCARGYGNYKAWFAYWGQGTLVTVSS
VL: DVQMTQSPSSLSASVGDRVTITCKASQSVSNDVAWYQQKPGKAPKLLIYYASTRYTGVPDRFSGSGYGTDFTFTISSLQPEDIATYFCQQDYSSLTFGQGTKLEIK
B12: H0L4 (antibody, human IgG1, V domains shown)
VH: QVQLVQSGAEVKKPGASVKVSCKASGYTFTSYNMYWVRQAPGQRLEWMGYIDPYNGGSSYNLTFKGRVTITRDTSASTAYMELSSLRSEDTAVYYCARGYGNYKAWFAYWGQGTLVTVSS
VL: DVQMTQSPSSLSASVGDRVTITCKASQSVSNDVAWYQQKPGKAPKLLIYYASTRYTGVPDRFSGSGYGTDFTFTISSLQPEDIATYFCQQDYSSLTFGQGTKLEIK
notes: as for B4
B13: H0L2 (antibody, human IgG1, V domains shown)
VH: QVQLVQSGAEVKKPGASVKVSCKASGYTFTSYNMYWVRQAPGQRLEWMGYIDPYNGGSSYNLTFKGRVTITRDTSASTAYMELSSLRSEDTAVYYCARGYGNYKAWFAYWGQGTLVTVSS
VL: DIQMTQSPSSLSASVGDRVTITCKASQSVSNDVAWYQQKPGKAPKLLIYYASTRYTGVPDRFSGSGYGTDFTFTISSLQPEDIATYYCQQDYSSLTFGQGTKLEIK
notes: as for B4
B14: H2L3 (antibody, human IgG1, V domains shown)
VH: QIQLVQSGAEVKKPGASVKVSCKASGYAFTSYNMYWVRQAPGQSLEWMGYIDPYNGGSSYNLTFKGRVTITVDKSASTAYMELSSLRSEDTAVYYCARGYGNYKAWFAYWGQGTLVTVSS
VL: DVQMTQSPSSLSASVGDRVTITCKASQSVSNDVAWYQQKPGKAPKLLIYYASTRYTGVPDRFSGSGYGTDFTFTISSLQPEDIATYYCQQDYSSLTFGQGTKLEIK
B15: H0L1 (antibody, human IgG1, V domains shown)
VH: QVQLVQSGAEVKKPGASVKVSCKASGYTFTSYNMYWVRQAPGQRLEWMGYIDPYNGGSSYNLTFKGRVTITRDTSASTAYMELSSLRSEDTAVYYCARGYGNYKAWFAYWGQGTLVTVSS
VL: DIQMTQSPSSLSASVGDRVTITCKASQSVSNDVAWYQQKPGKAPKLLIYYASTRYTGVPSRFSGSGYGTDFTFTISSLQPEDIATYYCQQDYSSLTFGQGTKLEIK
notes: as for B4
B16: H4L3 (antibody, human IgG1, V domains shown)
VH: QIQLVQSGAEVKKPGASVKVSCKASGYAFASYNMYWVRQAPGQSLEWIGYIDPYNGGSSYNLTFKGKATLTVDKSASTAYMELSSLRSEDTAVYYCARGYGNYKAWFAYWGQGTLVTVSS
VL: DVQMTQSPSSLSASVGDRVTITCKASQSVSNDVAWYQQKPGKAPKLLIYYASTRYTGVPDRFSGSGYGTDFTFTISSLQPEDIATYYCQQDYSSLTFGQGTKLEIK
B17: H1L4 (antibody, human IgG1, V domains shown)
VH: QIQLVQSGAEVKKPGASVKVSCKASGYTFTSYNMYWVRQAPGQRLEWMGYIDPYNGGSSYNLTFKGRVTITRDKSASTAYMELSSLRSEDTAVYYCARGYGNYKAWFAYWGQGTLVTVSS
VL: DVQMTQSPSSLSASVGDRVTITCKASQSVSNDVAWYQQKPGKAPKLLIYYASTRYTGVPDRFSGSGYGTDFTFTISSLQPEDIATYFCQQDYSSLTFGQGTKLEIK

Molecular target: T1, human recombinant soluble CD73 protein
Experiment: SPR, Ab captured on Protein A, soluble huCD73 as analyte
Description: SPR measurements were performed on a Biacore™ T200 apparatus at 25° C. Protein-A (GE Healthcare) was immobilized on a Sensor Chip CM5 (GE Healthcare). […] The entire sensorgram sets were fitted using the 1:1 kinetic binding model. Bivalent affinities and kinetic association and dissociation rate constants are calculated.
The binding of the antibodies in Table 2 of Example 1 were tested for binding to human soluble dimeric CD73 proteins and were cloned, produced and purified. Affinity and association and dissociation constants of humanized variants were assessed by SPR analysis.

With B1 as the binder, how does the Kd read?
The Kd was 1.3 nM.

And the koff?
The koff was 0.000155 s⁻¹.

What about the kon of the same binder?
Its kon is 118000 M⁻¹ s⁻¹.

Which results are given for B2?
Kd: 0.8 nM; koff: 7.2e-05 s⁻¹; kon: 92600 M⁻¹ s⁻¹

With B3 as the binder, how does the Kd read?
The Kd was 0.9 nM.

What about the koff of the same binder?
Its koff is 0.000106 s⁻¹.

And the kon?
The kon was 120000 M⁻¹ s⁻¹.

With B4 as the binder, how does the Kd read?
The Kd was 0.6 nM.

And the koff?
The koff was 9.49e-05 s⁻¹.

What about the kon of the same binder?
The kon was 170000 M⁻¹ s⁻¹.

How did the Kd turn out when B5 was run?
Its Kd is 1.4 nM.

What about the koff of the same binder?
Its koff is 0.000122 s⁻¹.

And the kon?
The kon was 86600 M⁻¹ s⁻¹.

Which Kd does the source give for B6 here?
Its Kd is 0.9 nM.

And the koff?
The koff was 7.12e-05 s⁻¹.

And the kon?
The kon was 77500 M⁻¹ s⁻¹.

How did the Kd turn out when B7 was run?
The Kd was 65 nM.

What about the koff of the same binder?
The koff was 0.00882 s⁻¹.

And the kon?
The kon was 136000 M⁻¹ s⁻¹.

With B8 as the binder, how does the Kd read?
Its Kd is 7.8 nM.

And the koff?
The koff was 0.00123 s⁻¹.

What about the kon of the same binder?
Its kon is 158000 M⁻¹ s⁻¹.

With B9 as the binder, how does the Kd read?
The Kd was 1.1 nM.

What about the koff of the same binder?
The koff was 0.000105 s⁻¹.

And the kon?
The kon was 95700 M⁻¹ s⁻¹.

What does the source list for B10?
Kd: 1.2 nM; koff: 7.14e-05 s⁻¹; kon: 60100 M⁻¹ s⁻¹

B11 was tested. Which Kd did it give?
The Kd was 1 nM.

What about the koff of the same binder?
Its koff is 8.91e-05 s⁻¹.

What about the kon of the same binder?
The kon was 90400 M⁻¹ s⁻¹.

What does the source list for B12?
Kd: 0.6 nM; koff: 8.65e-05 s⁻¹; kon: 137000 M⁻¹ s⁻¹

For B13, which Kd is on record?
The Kd was 0.7 nM.

And the koff?
Its koff is 0.000119 s⁻¹.

What about the kon of the same binder?
The kon was 168000 M⁻¹ s⁻¹.

Which results are given for B14?
Kd: 1 nM; koff: 0.000123 s⁻¹; kon: 120000 M⁻¹ s⁻¹

What does the source list for B15?
Kd: 0.9 nM; koff: 0.000127 s⁻¹; kon: 144000 M⁻¹ s⁻¹

Which results are given for B16?
Kd: 0.7 nM; koff: 7.69e-05 s⁻¹; kon: 110000 M⁻¹ s⁻¹

Which Kd does the source give for B17 here?
The Kd was 0.7 nM.

What about the koff of the same binder?
The koff was 6.77e-05 s⁻¹.

And the kon?
The kon was 98200 M⁻¹ s⁻¹.
